B1: TPTE2 peptide 94-109 (Phosphatidylinositol 3,4,5-trisphosphate 3-phosphatase TPTE2), 16-mer library wild type / TLN1 PTB (TLN1 Phosphotyrosine-binding (PTB) domain, residues 309-401) (parent)
chain 1: DLIFTDSKLYIPLEYR
chain 2: GVSFFLVKEKMKGKNKLVPRLLGITKECVMRVDEKTKEVIQEWNLTNIKRWAASPKSFTLDFGDYQDGYYSVQTTEGEQIAQLIAGYIDIILK

Variants of: B1
Assay: proteomic peptide phage display deep mutational scan (ProP-PD DMS): M13 P8 16-mer library selected against immobilised GST-tagged bait for four days (rounds), NGS of the eluted pools per day and pseudo-replica
Conditions: with TLN1 PTB (TLN1 Phosphotyrosine-binding (PTB) domain, residues 309-401); bait immobilised on MaxiSorp plates (10 µg), library pre-cleared on GST, 2 h binding at 4 °C, five washes; one round per day, days 1-4; value from days 2 and 3; keep out of graded; scale: average fractional NGS count over selection days 2 and 3

| Variant | screen value |
| --- | --- |
| chain 1 DLIFTASKLYIPLEYR | 3.11e-05 |
| chain 1 DLIFTMSKLYIPLEYR | 0 |
| chain 1 DLIFTNSKLYIPLEYR | 6.84e-05 |
| chain 1 DLIFTSSKLYIPLEYR | 0.000216 |
| chain 1 DLIFTHSKLYIPLEYR | 3.45e-05 |
| chain 1 DLIFTESKLYIPLEYR | 0.000625 |
| chain 1 DLIFTYSKLYIPLEYR | 3.05e-05 |
| chain 1 DLIFTGSKLYIPLEYR | 0 |
| chain 1 DLIFTTSKLYIPLEYR | 0.000144 |
| chain 1 DLIFTWSKLYIPLEYR | 3.79e-05 |
| chain 1 DLITTDSKLYIPLEYR | 0 |
| chain 1 DLIWTDSKLYIPLEYR | 0.00189 |
| chain 1 ILIFTDSKLYIPLEYR | 0 |
| chain 1 WLIFTDSKLYIPLEYR | 4.41e-05 |
| chain 1 TLIFTDSKLYIPLEYR | 0.000148 |
| chain 1 NLIFTDSKLYIPLEYR | 7.86e-05 |
| chain 1 ALIFTDSKLYIPLEYR | 9.19e-05 |
| chain 1 GLIFTDSKLYIPLEYR | 0.00013 |
| chain 1 ELIFTDSKLYIPLEYR | 0.000184 |
| chain 1 HLIFTDSKLYIPLEYR | 0 |
| chain 1 QLIFTDSKLYIPLEYR | 3.51e-05 |
| chain 1 KLIFTDSKLYIPLEYR | 0 |
| chain 1 FLIFTDSKLYIPLEYR | 2.74e-05 |
| chain 1 SLIFTDSKLYIPLEYR | 0.000249 |
| chain 1 PLIFTDSKLYIPLEYR | 0.00123 |
| chain 1 DLIFTDSKLYIPLGYR | 0.00107 |
| chain 1 DLIFTDSKLYIPLDYR | 0.00114 |
| chain 1 DLIFTDSKLYIPLAYR | 0.00053 |

| Variant | screen value |
| --- | --- |
| chain 1 DLIFTDSKLYIPLPYR | 0.00048 |
| chain 1 DLIFTDSKLYIPLFYR | 9.64e-05 |
| chain 1 DLIFTDSKLYIPLTYR | 0.000246 |
| chain 1 DLIFTDSKLYIPLLYR | 6.19e-05 |
| chain 1 DLIFTDSKLYIPLKYR | 0.000193 |
| chain 1 DLIFTDSKLYIPLWYR | 2.8e-05 |
| chain 1 DLIFTDSKLYIPLQYR | 0.000195 |
| chain 1 DLIFTDSKLYIPLHYR | 9.43e-05 |
| chain 1 DLIFTDSKLYIPLVYR | 3.45e-05 |
| chain 1 DLIFTDSKLYIPLSYR | 6.5e-05 |
| chain 1 DLLFTDSKLYIPLEYR | 0.00133 |
| chain 1 DLNFTDSKLYIPLEYR | 0.00121 |
| chain 1 DLMFTDSKLYIPLEYR | 0.000353 |
| chain 1 DLGFTDSKLYIPLEYR | 0.000109 |
| chain 1 DLSFTDSKLYIPLEYR | 0.000211 |
| chain 1 DLWFTDSKLYIPLEYR | 0.000147 |
| chain 1 DLTFTDSKLYIPLEYR | 0.00253 |
| chain 1 DLRFTDSKLYIPLEYR | 0.00161 |
| chain 1 DLAFTDSKLYIPLEYR | 2.4e-05 |
| chain 1 DLQFTDSKLYIPLEYR | 0.00339 |
| chain 1 DLYFTDSKLYIPLEYR | 0.000244 |
| chain 1 DLVFTDSKLYIPLEYR | 0.00384 |
| chain 1 DLHFTDSKLYIPLEYR | 4.16e-05 |
| chain 1 DLFFTDSKLYIPLEYR | 0.0002 |
| chain 1 DLEFTDSKLYIPLEYR | 0.00388 |
| chain 1 DLDFTDSKLYIPLEYR | 0.0027 |
| chain 1 DLKFTDSKLYIPLEYR | 0.00351 |

The remaining lines, values ahead:

| screen value | Variant |
| --- | --- |
| 0.000109 | chain 1 DLIFTDSELYIPLEYR |
| 0.000705 | chain 1 DLIFTDSNLYIPLEYR |
| 0.00137 | chain 1 DLIFTDSSLYIPLEYR |
| 0.00014 | chain 1 DLIFTDSHLYIPLEYR |
| 0.00105 | chain 1 DLIFTDSRLYIPLEYR |
| 0.0034 | chain 1 DLIFTDSPLYIPLEYR |
| 0 | chain 1 DLIFTDSILYIPLEYR |
| 0.000416 | chain 1 DLIFTDSGLYIPLEYR |
| 0.00103 | chain 1 DLIFTDSDLYIPLEYR |
| 9.24e-05 | chain 1 DLIFTDSTLYIPLEYR |
| 0.000286 | chain 1 DLIFTDSMLYIPLEYR |
| 9.03e-05 | chain 1 DLIFTDSYLYIPLEYR |
| 0.000141 | chain 1 DLIFTDSLLYIPLEYR |
| 0.00121 | chain 1 DLIFTDSQLYIPLEYR |
| 0 | chain 1 DLIFTDSVLYIPLEYR |
| 0.0039 | chain 1 DLIFTDSALYIPLEYR |
| 4.75e-05 | chain 1 DWIFTDSKLYIPLEYR |
| 0.000173 | chain 1 DIIFTDSKLYIPLEYR |
| 0.000178 | chain 1 DHIFTDSKLYIPLEYR |
| 0.000516 | chain 1 DEIFTDSKLYIPLEYR |

| screen value | Variant |
| --- | --- |
| 0.000116 | chain 1 DYIFTDSKLYIPLEYR |
| 0.000185 | chain 1 DTIFTDSKLYIPLEYR |
| 0.000486 | chain 1 DGIFTDSKLYIPLEYR |
| 3.05e-05 | chain 1 DSIFTDSKLYIPLEYR |
| 5.85e-05 | chain 1 DFIFTDSKLYIPLEYR |
| 0.000378 | chain 1 DAIFTDSKLYIPLEYR |
| 9.22e-05 | chain 1 DDIFTDSKLYIPLEYR |
| 0.000184 | chain 1 DPIFTDSKLYIPLEYR |
| 0.00204 | chain 1 DMIFTDSKLYIPLEYR |
| 0.00592 | chain 1 DVIFTDSKLYIPLEYR |
| 2.74e-05 | chain 1 DNIFTDSKLYIPLEYR |
| 0 | chain 1 DQIFTDSKLYIPLEYR |
| 0 | chain 1 DLIFTDSKNYIPLEYR |
| 0.000626 | chain 1 DLIFTDSKGYIPLEYR |
| 4.46e-05 | chain 1 DLIFTDSKMYIPLEYR |
| 0 | chain 1 DLIFTDSKRYIPLEYR |
| 0 | chain 1 DLIFTDSKDYIPLEYR |
| 0.00044 | chain 1 DLIFTDSKAYIPLEYR |
| 0.000157 | chain 1 DLIFTDSKIYIPLEYR |

Reference: publication PMC12102759
